Measured values from article PMC9330781.

Target: Recombinant blood coagulation factor VIII (human)
Conditions: scale: times higher molar excess over FVIII

- FVIII activity in the chromogenic substrate (CS) assay; thrombin-cleaved scFv 1000 to 0.24 nM with 145 pM FVIII; molar excess needed for the same inhibition as the non-cleaved scFv: 100
B1: Thrombin-cleaved iKM33-v2 (mixture of dissociated VH and VL) (protein)
VH: EVQLVESGGGVVQPGRSLRLSCVDSGLTFSSYGMHWVRQAPGAGLEWVAVISYDGNDKYYADSVKGRFAISRDNAKNTLYLQMNSLTIEDTAVYYCAKDLIESNIAEAFWGQGTLVTVSS
VL: DIQMTQSPSSLSASVGDTVTIACRASRDIRNDLAWYQQKPGKAPKLLIYATSRLQSGVPSRFSGSGSFTDFTLTINSLQPDDSATYYCLQDSDYPLTFGGGTKVDIK
